Values quoted from earlier work as cited in paper PMC3567247.
pKd: −log10 of the molar value. Like-named read-outs stand apart in the source and are kept apart here.

Legend:
Ribonuclease Inhibitor = Ribonuclease Inhibitor (UniProt P13489)
[1] = target: Ribonuclease Inhibitor (Sus scrofa) (UniProt P10775)
BR3 (Homo sapiens) [2] = target: BR3 (Homo sapiens) (UniProt Q96RJ3)
BCMA (Homo sapiens) [3] = target: BCMA (Homo sapiens) (UniProt Q02223)
TACI (Homo sapiens) = TACI (Homo sapiens) (UniProt O14836)
[4] = target: Barstar (Bacillus amyloliquefaciens) (UniProt P11540)
BR3 (Homo sapiens) [5] = target: BR3 (Homo sapiens) (UniProt Q96RJ3); experiment: surface plasmon resonance
BCMA (Homo sapiens) [6] = target: BCMA (Homo sapiens) (UniProt Q02223); experiment: surface plasmon resonance
CD40L (Homo sapiens) = CD40L (Homo sapiens) (UniProt P29965)
Im9 (Escherichia coli) = Im9 (Escherichia coli) (UniProt P13479)
CD40 (Homo sapiens) = CD40 (Homo sapiens) (UniProt P25942)
BPTI (Bos taurus) = BPTI (Bos taurus) (UniProt P00974)

Chain of BR3 (Homo sapiens) (Q96RJ3 whole entry): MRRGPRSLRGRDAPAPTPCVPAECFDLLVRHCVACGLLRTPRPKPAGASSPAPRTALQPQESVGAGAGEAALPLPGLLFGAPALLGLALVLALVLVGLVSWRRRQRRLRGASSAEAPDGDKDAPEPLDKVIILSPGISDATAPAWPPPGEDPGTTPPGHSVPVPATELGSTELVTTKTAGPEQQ
Chain of APRIL (O75888 105-250): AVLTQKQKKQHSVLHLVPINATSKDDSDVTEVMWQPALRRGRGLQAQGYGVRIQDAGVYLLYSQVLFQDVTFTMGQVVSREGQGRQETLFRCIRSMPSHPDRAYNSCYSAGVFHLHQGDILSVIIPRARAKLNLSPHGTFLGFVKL
Chain of BCMA (Homo sapiens) (Q02223 whole entry): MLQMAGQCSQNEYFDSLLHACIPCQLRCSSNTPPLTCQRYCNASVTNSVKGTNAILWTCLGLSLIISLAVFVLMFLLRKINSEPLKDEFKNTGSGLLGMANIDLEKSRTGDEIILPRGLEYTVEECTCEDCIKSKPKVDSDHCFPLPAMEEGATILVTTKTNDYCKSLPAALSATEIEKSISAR
Chain of Ribonuclease A (P61823 27-150): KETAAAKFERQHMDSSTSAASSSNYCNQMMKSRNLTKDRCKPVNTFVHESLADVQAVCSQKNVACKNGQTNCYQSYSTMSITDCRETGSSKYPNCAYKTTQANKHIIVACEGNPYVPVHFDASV
Chain of Im9 (Escherichia coli) (P13479 whole entry): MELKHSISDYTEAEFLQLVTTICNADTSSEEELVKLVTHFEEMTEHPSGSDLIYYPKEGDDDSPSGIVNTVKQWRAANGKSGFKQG
Chain of Colicin E9 nuclease (P09883 449-582): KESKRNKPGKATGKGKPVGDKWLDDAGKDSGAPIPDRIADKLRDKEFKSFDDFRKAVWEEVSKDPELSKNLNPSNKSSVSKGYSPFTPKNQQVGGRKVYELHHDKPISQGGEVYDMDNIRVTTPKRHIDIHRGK
Chain of Barstar (Bacillus amyloliquefaciens) (P11540 2-90): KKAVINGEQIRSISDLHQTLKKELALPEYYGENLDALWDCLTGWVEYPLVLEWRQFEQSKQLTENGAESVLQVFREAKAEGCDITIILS
Chain of CD40L (Homo sapiens) (P29965 113-261): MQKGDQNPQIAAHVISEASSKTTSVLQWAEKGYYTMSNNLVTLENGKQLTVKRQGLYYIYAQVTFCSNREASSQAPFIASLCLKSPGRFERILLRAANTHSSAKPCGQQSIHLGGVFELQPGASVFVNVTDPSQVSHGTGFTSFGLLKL
Chain of CD40L (P29965 113-261): as above
Chain of Barnase (P00648 48-157): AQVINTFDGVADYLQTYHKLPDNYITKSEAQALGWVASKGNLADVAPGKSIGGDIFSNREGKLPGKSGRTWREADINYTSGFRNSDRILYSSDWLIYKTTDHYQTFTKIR
Chain of CD40 (Homo sapiens) (P25942 21-277): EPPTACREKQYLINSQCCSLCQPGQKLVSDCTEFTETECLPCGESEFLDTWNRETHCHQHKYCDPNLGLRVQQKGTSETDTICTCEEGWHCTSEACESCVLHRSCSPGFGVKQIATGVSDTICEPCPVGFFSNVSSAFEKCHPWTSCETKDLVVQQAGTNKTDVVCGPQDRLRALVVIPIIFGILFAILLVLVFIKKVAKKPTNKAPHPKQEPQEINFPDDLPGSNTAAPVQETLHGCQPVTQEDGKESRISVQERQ
Chain of CD40 (P25942 21-277): as above
Chain of Ribonuclease Inhibitor (Sus scrofa) (P10775 whole entry): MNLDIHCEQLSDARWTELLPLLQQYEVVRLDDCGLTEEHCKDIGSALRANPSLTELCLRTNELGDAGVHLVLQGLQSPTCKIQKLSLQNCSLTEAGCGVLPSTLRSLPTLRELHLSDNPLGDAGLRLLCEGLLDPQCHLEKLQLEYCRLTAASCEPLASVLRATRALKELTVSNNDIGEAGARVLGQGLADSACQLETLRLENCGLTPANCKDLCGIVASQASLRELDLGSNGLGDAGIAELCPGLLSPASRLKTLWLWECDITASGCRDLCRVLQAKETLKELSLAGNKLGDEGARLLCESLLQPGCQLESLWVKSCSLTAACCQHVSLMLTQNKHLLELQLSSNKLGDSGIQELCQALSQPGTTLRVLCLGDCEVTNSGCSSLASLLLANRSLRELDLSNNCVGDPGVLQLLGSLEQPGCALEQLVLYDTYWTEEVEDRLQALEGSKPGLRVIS
Chain of TACI (Homo sapiens) (O14836 whole entry): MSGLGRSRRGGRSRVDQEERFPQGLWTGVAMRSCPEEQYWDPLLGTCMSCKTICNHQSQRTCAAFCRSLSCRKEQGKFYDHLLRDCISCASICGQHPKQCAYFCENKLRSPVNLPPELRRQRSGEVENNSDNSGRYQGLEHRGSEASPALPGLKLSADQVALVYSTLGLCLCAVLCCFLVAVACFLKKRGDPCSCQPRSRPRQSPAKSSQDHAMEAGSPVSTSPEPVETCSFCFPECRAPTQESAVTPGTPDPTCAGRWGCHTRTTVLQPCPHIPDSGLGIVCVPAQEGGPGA
Chain of Ribonuclease Inhibitor (P13489 2-461): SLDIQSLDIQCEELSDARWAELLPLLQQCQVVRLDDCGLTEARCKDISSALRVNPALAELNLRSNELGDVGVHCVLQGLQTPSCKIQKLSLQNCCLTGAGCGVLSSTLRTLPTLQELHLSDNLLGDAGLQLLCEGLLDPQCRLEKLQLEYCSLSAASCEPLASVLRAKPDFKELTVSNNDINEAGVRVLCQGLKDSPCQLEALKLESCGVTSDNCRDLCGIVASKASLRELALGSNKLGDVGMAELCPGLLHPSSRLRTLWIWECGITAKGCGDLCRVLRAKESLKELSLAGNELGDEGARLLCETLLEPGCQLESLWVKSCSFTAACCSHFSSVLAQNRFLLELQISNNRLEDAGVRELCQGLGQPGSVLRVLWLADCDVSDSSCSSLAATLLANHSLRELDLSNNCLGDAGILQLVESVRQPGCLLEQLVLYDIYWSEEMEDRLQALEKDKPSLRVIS

Substance: Ribonuclease A (from UniProt P61823)
- pKd (Ribonuclease Inhibitor): 13.23
- pKd [1]: 13.23

Substance: BAFF (from UniProt Q9Y275)
- pKd (BR3 (Homo sapiens) [2]): 7.82
- pKd (BCMA (Homo sapiens) [3]): 5.82
- pKd (TACI (Homo sapiens)): 7.89

Substance: Barnase (from UniProt P00648)
- pKd [4]: 12.70

Substance: APRIL (from UniProt O75888)
- pKd (BR3 (Homo sapiens) [5]): < 5.52
- pKd (BCMA (Homo sapiens) [6]): 7.82

Substance: CD40 (from UniProt P25942)
- pKd (CD40L (Homo sapiens)): 4.89

Substance: Colicin E9 nuclease (from UniProt P09883)
- pKd (Im9 (Escherichia coli)): 13.62

Substance: CD40L (from UniProt P29965)
- pKd (CD40 (Homo sapiens)): 4.89

Substance: trypsinogen (from UniProt P00760)
- pKd (BPTI (Bos taurus)): 13.22
